The values below come from publication PMC4687643.

The target in experiment [1] is GST-amphiphysin I SH3 domain (human) (UniProt P49418).
For experiment [2], the target named is GST-syndapin I SH3 domain (mouse) (UniProt Q61644).
The target of experiment [3] is GST-Formin Binding Protein 17 (FBP17) SH3 domain (human) (UniProt Q96RU3).
The target of experiment [4] is GST-endophilin I SH3 domain (mouse) (UniProt Q62420).
The target in experiment [5] is GST-p85 SH3 domain (bovine) (UniProt P23727).
Experiment [6] concerns the target GST-cortactin SH3 domain (mouse) (UniProt Q60598).
Experiment [7] has as its target GST-sorting-nexin 9 (SNX9) SH3 domain (human) (UniProt Q9Y5X1).
In experiment [8] the target is GST-intersectin I SH3A domain (Xenopus laevis).
Experiment [9] concerns the target GST-intersectin I SH3C domain (Xenopus laevis).
Experiment [10] addresses GST-Actin binding protein 1 (Abp1) SH3 domain (mouse) (UniProt Q62418).
The target in experiment [11] is GST-Cdc42 interacting protein 4 (CIP4) SH3 domain (human) (UniProt Q15642).
For experiment [12], the target named is GST-intersectin I SH3E domain (Xenopus laevis).
The target of experiment [13] is GST-amphiphysin II SH3 domain (human) (UniProt O00499).
Experiment [14] deals with GST-amphiphysin I SH3 domain (human) (UniProt P49418). The source holds these as a separate data set.
Experiment [15] addresses GST-syndapin I SH3 domain (mouse) (UniProt Q61644). The source holds these as a separate data set.
Experiment [16] has as its target GST-Formin Binding Protein 17 (FBP17) SH3 domain (human) (UniProt Q96RU3). This is another data set of the same source.
In experiment [17] the target is GST-endophilin I SH3 domain (mouse) (UniProt Q62420). The source holds these as a separate data set.
For experiment [18], the target named is GST-p85 SH3 domain (bovine) (UniProt P23727). The source holds these as a separate data set.
The target of experiment [19] is GST-cortactin SH3 domain (mouse) (UniProt Q60598). The source holds these as a separate data set.
The target in experiment [20] is GST-intersectin I SH3C domain (Xenopus laevis). This is another data set of the same source.
Experiment [21] concerns the target GST-Actin binding protein 1 (Abp1) SH3 domain (mouse) (UniProt Q62418). The source holds these as a separate data set.
For experiment [22], the target named is GST-Cdc42 interacting protein 4 (CIP4) SH3 domain (human) (UniProt Q15642). The source holds these as a separate data set.
Experiment [23] concerns the target GST-intersectin I SH3E domain (Xenopus laevis). The source holds these as a separate data set.
The target of experiment [24] is GST-amphiphysin II SH3 domain (human) (UniProt O00499). The source holds these as a separate data set.

Bounds are passed on as bounds.

GST-Actin binding protein 1 (Abp1) SH3 domain (mouse), sequence (Q62418 377-436): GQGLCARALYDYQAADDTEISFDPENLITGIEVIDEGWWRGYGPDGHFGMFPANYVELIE
GST-amphiphysin I SH3 domain (human), sequence (P49418 622-695): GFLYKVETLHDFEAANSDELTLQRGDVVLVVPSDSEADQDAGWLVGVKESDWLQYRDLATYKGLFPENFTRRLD
GST-syndapin I SH3 domain (mouse), sequence (Q61644 382-441): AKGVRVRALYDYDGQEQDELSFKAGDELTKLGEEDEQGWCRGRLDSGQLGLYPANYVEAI
GST-cortactin SH3 domain (mouse), sequence (Q60598 488-546): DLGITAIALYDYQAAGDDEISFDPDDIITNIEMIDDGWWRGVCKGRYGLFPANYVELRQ
GST-amphiphysin II SH3 domain (human), sequence (O00499 520-593): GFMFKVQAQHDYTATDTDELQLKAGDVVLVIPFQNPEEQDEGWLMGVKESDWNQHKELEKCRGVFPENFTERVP
GST-Formin Binding Protein 17 (FBP17) SH3 domain (human), sequence (Q96RU3 550-611): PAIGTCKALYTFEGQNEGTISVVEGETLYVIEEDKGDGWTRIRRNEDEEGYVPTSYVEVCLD
GST-endophilin I SH3 domain (mouse), sequence (Q62420 290-349): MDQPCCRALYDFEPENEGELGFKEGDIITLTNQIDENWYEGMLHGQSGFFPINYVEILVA
GST-Cdc42 interacting protein 4 (CIP4) SH3 domain (human), sequence (Q15642 540-601): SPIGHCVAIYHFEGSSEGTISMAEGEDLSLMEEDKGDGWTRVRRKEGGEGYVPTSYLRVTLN
GST-sorting-nexin 9 (SNX9) SH3 domain (human), sequence (Q9Y5X1 1-62): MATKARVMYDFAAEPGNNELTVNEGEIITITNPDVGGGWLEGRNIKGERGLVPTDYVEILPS

As for “recombinant human dynamin I middle domain splice variant Iab (enzyme)”, the rate of dynamin GTPase activity stimulated by the GST-SH3 domain (ELIPA, 30 mM NaCl, basal rate subtracted) (μmoles Pi/mg of dyn/min) was 0.032 in [1]; 0.026 in [2]; 0.084 in experiment [3]; 0.032 in experiment [4]; 0.014 in [5]; 0.03 in experiment [6]. Further, the rate of dynamin GTPase activity stimulated by the GST-SH3 domain (ELIPA, 30 mM NaCl, basal rate subtracted) (μmoles Pi/mg of dyn/min) in [7] is 0.03; in experiment [8], 0.026; in experiment [9], 0; in experiment [10], 0.011; in [11] it was 0; in experiment [12] it was 0.023. The rate of dynamin GTPase activity stimulated by the GST-SH3 domain (ELIPA, 30 mM NaCl, basal rate subtracted) (μmoles Pi/mg of dyn/min) in experiment [13] is 0.01. Further, the dynamin GTPase activity stimulated by the GST-SH3 domain (ELIPA, 150 mM NaCl) (μmoles Pi/mg of dynamin) in experiment [14], in [15], in [16], in [17], in experiment [18] and in experiment [19] was less than 0.03 each time. Further, the dynamin GTPase activity stimulated by the GST-SH3 domain (ELIPA, 150 mM NaCl) (μmoles Pi/mg of dynamin) in experiment [20], in experiment [21], in experiment [22], in experiment [23] and in experiment [24] was less than 0.03 throughout.
As for “recombinant human dynamin I middle domain splice variant Ibb (enzyme)”, the rate of dynamin GTPase activity stimulated by the GST-SH3 domain (ELIPA, 30 mM NaCl, basal rate subtracted) (μmoles Pi/mg of dyn/min) came out at 0.056 in experiment [1]; 0.068 in experiment [2]; 0.098 in experiment [3]; 0.016 in [4]; 0.02 in experiment [5]; 0.102 in experiment [6]. Besides, the rate of dynamin GTPase activity stimulated by the GST-SH3 domain (ELIPA, 30 mM NaCl, basal rate subtracted) (μmoles Pi/mg of dyn/min) in experiment [7] turned out to be 0.041; in [8], 0.075; in experiment [9], 0.017; in experiment [10] it was 0.011; in [11], 0.019; in experiment [12] it was 0.036. For the same substance, the rate of dynamin GTPase activity stimulated by the GST-SH3 domain (ELIPA, 30 mM NaCl, basal rate subtracted) (μmoles Pi/mg of dyn/min) in experiment [13] was 0.013. Moreover, the dynamin GTPase activity stimulated by the GST-SH3 domain (ELIPA, 150 mM NaCl) (μmoles Pi/mg of dynamin) in experiment [14], in experiment [15], in [16], in experiment [17], in experiment [18] and in experiment [19] was less than 0.03 in each case. Moreover, the dynamin GTPase activity stimulated by the GST-SH3 domain (ELIPA, 150 mM NaCl) (μmoles Pi/mg of dynamin) in [20], in experiment [21], in [22], in experiment [23] and in experiment [24] was less than 0.03 in each case.
